This is an account of results in patent publication US20180187185.

Holding throughout (test): cell_activity
The subject of data set [1] is AAVS1 TALE-Clo051 (Clo051-XTN) (Xanthomonas TALE). The settings on record: average of replicates; locus inferred AAVS1; sequencing gave 9.3% indels (FIG. 11).
For data set [2], the system named is AAVS1 TALE-FokI (FokI-XTN) (Xanthomonas TALE). The settings on record: average of replicates; locus inferred AAVS1; sequencing gave 6.5% indels (FIG. 12).
Data set [3] concerns Bmpr2 REV RTN (Ralstonia TALE 16 EBEs in Xanthomonas TAL backbone-FokI) (Ralstonia (TALE repeats); Xanthomonas backbone). Particulars: RTN pair p1+p2, Rat C6, Surveyor 250 bp band; 5.43% by 150 bp band; printed SEQ 150 differs from SEQ 148 complement at position 5.
For data set [4], the system named is Bmpr2 FWD RTN (Ralstonia TALE 16 EBEs in Xanthomonas TAL backbone-FokI) (Ralstonia (TALE repeats); Xanthomonas backbone). Particulars: RTN pair p1+p2, Rat C6, Surveyor 250 bp band; 5.43% by 150 bp band.
For data set [5], the system named is Bmpr2 XTN (Xanthomonas TALEN-FokI pair) (Xanthomonas). The settings on record: TALEN pair, Rat C6, Surveyor 250 bp band; 3.66% by 150 bp band; XTN RVDs and half-sites not stated.

Take AAVS1 target locus: the values for the activity in data set [1] and in data set [2] were 8.1 % cutting and 7.1 % cutting, respectively. As for “TGACAGGTAAACGAAATA (double strand) [Bmpr2 reverse half-site (complement of the printed strand)]”, the activity in data set [3] was 1.82 % cutting. “TTGATAGTCGCCTTATGT (double strand) [Bmpr2 forward half-site]” came in with an activity in data set [4] of 1.82 % cutting. As to “TTGATAGTCGCCTTATGTTTTGGATACAGAATGTTGACAGGTAAACGAAATA (double strand) [Bmpr2 full TALEN target site]”, the activity in data set [5] was found to be 5.75 % cutting.
